Experimental data published in publication PMC6156153.

Molecular target: recombinant staphylococcal protein A (SpA) (Staphylococcus aureus) (UniProt P02976)
Sequence of UniProt P02976 (P02976 37-485): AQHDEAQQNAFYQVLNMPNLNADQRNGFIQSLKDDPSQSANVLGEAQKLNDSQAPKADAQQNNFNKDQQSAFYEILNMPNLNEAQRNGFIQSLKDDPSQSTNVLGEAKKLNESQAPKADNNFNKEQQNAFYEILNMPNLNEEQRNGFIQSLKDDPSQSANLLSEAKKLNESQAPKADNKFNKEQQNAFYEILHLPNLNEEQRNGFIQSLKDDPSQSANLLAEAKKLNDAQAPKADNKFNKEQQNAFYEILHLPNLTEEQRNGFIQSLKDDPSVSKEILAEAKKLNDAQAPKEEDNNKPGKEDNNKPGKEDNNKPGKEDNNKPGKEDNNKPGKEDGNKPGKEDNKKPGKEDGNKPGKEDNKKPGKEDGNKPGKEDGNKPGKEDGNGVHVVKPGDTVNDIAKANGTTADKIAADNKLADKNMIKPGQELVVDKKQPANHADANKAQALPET

| Substance | in vivo depletion of adoptively transferred VHIII (T15i) B cells at 72 h after SpA challenge in muMT mice pretreated with 1 mg of the IgG (told of the IgG3 mAbs together) |
| --- | --- |
| recombinant murine VHI isotype control IgG3 (antibody genes of the anti-hen egg lysozyme D1.3 mAb) | 60 % depletion |
| recombinant murine VHIII IgG3 (variable regions of the anti-PC TEPC15 clone) (antibody) | 60 % depletion |
